Reference: patent US10131691B2, “Compositions and methods for specific regulation of pyruvate dehydrogenase kinase” (THE BOARD OF TRUSTEES OF THE LELAND STANFORD JUNIOR …, priority 2011, dated 2018)
No end group written: not given here.

Experiments:
δPKC [1] = target: T1, δPKC (Mus musculus, UniProt P28867); experiment: MARCKS phosphorylation in wild-type fibroblasts (Western blot); format: cell-based; settings: 20% serum, peptides conjugated to TAT47-57, relative to control peptide
T1 construct: endogenous in cells; host or cells: primary fibroblasts from wild-type mice
T1 sequence (P28867 whole entry): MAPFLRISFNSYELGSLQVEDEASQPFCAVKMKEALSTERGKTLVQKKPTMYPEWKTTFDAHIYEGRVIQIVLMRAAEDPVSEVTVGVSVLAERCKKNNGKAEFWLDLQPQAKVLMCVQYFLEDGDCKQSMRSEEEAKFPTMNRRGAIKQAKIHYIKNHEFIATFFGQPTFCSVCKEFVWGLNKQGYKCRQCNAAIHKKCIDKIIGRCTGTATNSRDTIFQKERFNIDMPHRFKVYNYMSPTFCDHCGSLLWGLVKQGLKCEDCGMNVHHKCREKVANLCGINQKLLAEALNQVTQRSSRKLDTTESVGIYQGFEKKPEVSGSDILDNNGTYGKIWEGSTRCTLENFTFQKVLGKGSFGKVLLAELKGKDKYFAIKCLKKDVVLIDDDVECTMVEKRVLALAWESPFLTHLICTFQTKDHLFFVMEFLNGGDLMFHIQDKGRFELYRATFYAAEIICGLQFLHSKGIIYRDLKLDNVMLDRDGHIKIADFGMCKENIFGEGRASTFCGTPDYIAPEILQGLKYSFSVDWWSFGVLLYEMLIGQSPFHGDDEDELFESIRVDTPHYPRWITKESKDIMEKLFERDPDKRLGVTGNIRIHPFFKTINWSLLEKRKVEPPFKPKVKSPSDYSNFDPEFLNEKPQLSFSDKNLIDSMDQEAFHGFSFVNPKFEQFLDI
From the text: Fibroblasts were isolated from wild-type or δPKC knockout mice (provided by Dr. Robert Messing, Gallo Center, UCSF) as previously described (Disatnik et al., 2004, J. Cell Sci., 117:4469-4479) and maintained in 20% fetal bovine serum.
Phosphorylation of myristoylated alanine-rich C kinase substrate (MARCKS), a ubiquitous PKC substrate, was monitored by Western blot of total cell lysates, using anti-phosphorylated MARCKS (Cell Signaling, Danvers, Mass.). Anti-MARCKS and anti-δPKC antibodies were obtained from Santa Cruz Biotechnology (Santa Cruz Biotechnology, CA, USA).
The ΨPDK sequence is found both in PDK and in the PDK-cognate protein, δPKC. It was therefore predicted that ΨPDK mimics inhibitory intra-molecular interaction, and, similar to ΨδRACK, ΨPDK should compete with the inhibitory interaction of PDK and δPKC, and increase δPKC-mediated functions (FIG. 1A). Phosphorylation of myristoylated alanine-rich C-kinase substrate (MARCKS) was used as a marker of PKC activity (Disatnik et al., 2004, J. Cell. Sci., 117:4469-4479). […] To determine the selectivity of the peptides for δPKC, fibroblasts derived from δPKC knock-out mice were also used.

[2] = target: T2, δPKC phosphorylation of Drp1 (Homo sapiens, UniProt Q05655); experiment: In vitro kinase assay: δPKC phosphorylation of Drp1; format: biochemical
T2 construct: purchased Invitrogen
T2 sequence (Q05655 whole entry): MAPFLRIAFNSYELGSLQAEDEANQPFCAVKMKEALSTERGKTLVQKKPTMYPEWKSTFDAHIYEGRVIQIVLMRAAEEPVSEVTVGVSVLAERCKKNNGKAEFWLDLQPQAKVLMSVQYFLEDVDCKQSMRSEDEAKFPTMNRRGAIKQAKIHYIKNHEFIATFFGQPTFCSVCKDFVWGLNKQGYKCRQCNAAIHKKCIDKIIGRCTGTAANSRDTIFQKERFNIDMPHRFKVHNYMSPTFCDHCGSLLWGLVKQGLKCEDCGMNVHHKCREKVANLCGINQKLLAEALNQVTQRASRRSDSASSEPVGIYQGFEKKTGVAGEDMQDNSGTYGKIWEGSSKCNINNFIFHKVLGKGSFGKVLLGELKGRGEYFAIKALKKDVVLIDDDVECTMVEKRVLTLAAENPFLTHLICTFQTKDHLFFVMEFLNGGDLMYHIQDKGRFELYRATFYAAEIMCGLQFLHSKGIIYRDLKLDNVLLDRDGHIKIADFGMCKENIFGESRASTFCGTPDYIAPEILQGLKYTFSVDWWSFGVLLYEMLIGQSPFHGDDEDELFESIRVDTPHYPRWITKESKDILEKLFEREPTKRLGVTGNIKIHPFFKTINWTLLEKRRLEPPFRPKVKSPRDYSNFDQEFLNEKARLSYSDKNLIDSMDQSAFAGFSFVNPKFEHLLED
Experimental: In vitro phosphorylation assay. To determine the level of PDK and Drp1 phosphorylation in presence of ΨPDK, δPKC recombinant protein (Invitrogen, Calif., USA; 200 ng) was incubated with or without peptides for 10 min, then 100 ng recombinant PDK2 (Abnova, Taiwan) or Drp1 (Abnova, Taiwan) were added for 20 min at 37° C. in 40 μl of kinase buffer (20 mM Tris-HCl, 20 mM MgCl2, 1 μM DTT, 25 μM ATP, 1 mM CaCl2) containing 5 μCi [γ^32P] ATP (4500 Ci/mmol, ICN) in the presence of the low amount of PKC activators, phosphatidylserine (PS, 1.25 μg) and 1,2 dioleoyl sn-glycerol (DG, 0.04 μg). The kinase assay was terminated by adding loading Laemmli buffer containing 5% SDS and the samples were loaded on a 10% PAGE-SDS polyacrylamide gel, and the levels of phosphorylated PDK2 protein were determined by exposing the nitrocellulose to autoradiography. The nitrocellulose was also reprobed using respective antibodies for loading controls.
Since ΨPDK is derived from a PDK-like sequence in δPKC (FIG. 1B), it was reasoned that this peptide should act as a competitive inhibitor, selective for δPKC phosphorylation of PDK. To test this hypothesis directly, an in vitro kinase assay in which the ability of δPKC to phosphorylate PDK is determined was used.

βIPKC = βIPKC (Homo sapiens, UniProt P05771); experiment: Proteinase K sensitivity of βIPKC; format: binding
βIPKC, sequence (P05771 whole entry): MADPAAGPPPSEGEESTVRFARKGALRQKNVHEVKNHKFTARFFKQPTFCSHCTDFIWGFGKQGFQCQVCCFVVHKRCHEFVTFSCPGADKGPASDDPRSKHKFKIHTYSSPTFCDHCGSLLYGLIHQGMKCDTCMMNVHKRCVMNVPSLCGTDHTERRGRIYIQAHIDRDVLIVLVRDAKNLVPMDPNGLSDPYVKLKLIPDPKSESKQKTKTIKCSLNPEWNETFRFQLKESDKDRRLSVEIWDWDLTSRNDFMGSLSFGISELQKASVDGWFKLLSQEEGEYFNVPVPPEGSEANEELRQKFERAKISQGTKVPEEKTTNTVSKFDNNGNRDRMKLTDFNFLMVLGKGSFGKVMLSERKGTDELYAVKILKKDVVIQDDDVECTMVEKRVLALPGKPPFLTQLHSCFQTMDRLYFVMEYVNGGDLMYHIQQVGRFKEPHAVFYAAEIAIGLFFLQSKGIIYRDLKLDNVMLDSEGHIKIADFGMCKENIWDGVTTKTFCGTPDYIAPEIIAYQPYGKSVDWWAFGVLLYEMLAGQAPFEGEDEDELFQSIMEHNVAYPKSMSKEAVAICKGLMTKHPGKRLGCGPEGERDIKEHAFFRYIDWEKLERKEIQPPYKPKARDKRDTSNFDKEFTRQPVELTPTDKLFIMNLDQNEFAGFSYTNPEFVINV

δPKC [3] = target: T3, δPKC (Rattus norvegicus, UniProt P09215); experiment: δPKC translocation into mitochondria in intact hearts (ex vivo I/R)
T3 construct: from tissue; host or cells: rat heart (ex vivo ischemia/reperfusion), mitochondrial fraction
T3 sequence (P09215 whole entry, the tested form may be a part): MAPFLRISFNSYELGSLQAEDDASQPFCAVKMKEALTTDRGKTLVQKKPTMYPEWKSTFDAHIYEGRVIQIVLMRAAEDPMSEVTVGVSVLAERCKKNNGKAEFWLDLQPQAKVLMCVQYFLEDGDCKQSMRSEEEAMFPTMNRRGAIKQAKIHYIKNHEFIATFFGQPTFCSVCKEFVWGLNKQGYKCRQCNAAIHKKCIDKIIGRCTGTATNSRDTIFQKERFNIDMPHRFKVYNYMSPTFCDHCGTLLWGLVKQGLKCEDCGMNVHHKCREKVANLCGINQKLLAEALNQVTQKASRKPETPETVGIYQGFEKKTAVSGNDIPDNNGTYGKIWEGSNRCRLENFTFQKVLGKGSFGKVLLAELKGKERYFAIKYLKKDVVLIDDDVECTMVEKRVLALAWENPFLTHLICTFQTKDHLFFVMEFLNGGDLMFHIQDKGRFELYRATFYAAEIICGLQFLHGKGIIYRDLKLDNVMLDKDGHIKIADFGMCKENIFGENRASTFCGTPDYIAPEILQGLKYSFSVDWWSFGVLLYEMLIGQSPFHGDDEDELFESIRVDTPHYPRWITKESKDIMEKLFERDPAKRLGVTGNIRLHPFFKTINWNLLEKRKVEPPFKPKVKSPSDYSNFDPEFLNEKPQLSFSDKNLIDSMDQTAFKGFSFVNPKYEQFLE
Experimental: An ex vivo model of acute ischemic heart damage was used, which involves a 30 min equilibration period, followed by 30 min of global ischemia, which in turn is followed by 60 min of reperfusion. The hearts were perfused with 1 μM TAT or TAT-conjugated peptide. Normoxic control hearts were subjected to 90 min perfusion in the absence of ischemia. Coronary effluent was collected to determine creatine phosphokinase (CPK) release during the first 30 min of the reperfusion period. At the end of the reperfusion period, hearts were sliced into 1-mm-thick transverse sections and incubated in triphenyltetrazolium chloride solution (TTC, 1% in phosphate buffer, pH 7.4) at 37° C. for 15 min. Infarct size was expressed as a percentage of the risk zone (equivalent to total LV muscle mass) (methods described in Brandman et al., 2007, J. Biol. Chem., 282:4113-4123; Inagaki et al., 2003, Circulation, 108:869-875).
Rat hearts were homogenized in a buffer containing 210 mM mannitol, 70 mM sucrose, 5 mM MOPS and 1 mM EDTA followed by isolation of the mitochondria fraction (described in Churchill et al., 2008, J. Mol. Cell. Cardiol., 46:278-284) and identified by the presence of VDAC (MitoSciences, Eugene, Oreg., USA). The level of phosphorylated and unphosphorylated JNK1/2 was analyzed in the total fraction using respective specific antibodies (Cell Signaling, Danvers, Mass. and Santa Cruz Biotechnology, CA, USA). […]
Phosphorylation of the mitochondrial PDK by δPKC occurs only following myocardial infarction Under these conditions, δPKC translocates into the mitochondria (Churchill et al., 2005, Circ. Res., 97:78-85) where it has access to PDK. It was therefore first determined whether ΨPDK peptide affects δPKC translocation into the mitochondria. […] However, similar to the mitochondrial matrix protein, aldehyde dehydrogenase (ALDH2), the majority of δPKC was insensitive to proteolysis by PK (FIG. 4C; quantitated in FIG. 4D).

ALSTER (not fully specified (C-terminus); also: TAT47-57 conjugated via disulfide) [ΨPDK, for cells and hearts conjugated to TAT47-57 via disulfide bond]
MARCKS phosphorylation (δPKC [1]): increased MARCKS phosphorylation | Drp1 phosphorylation by δPKC [2]: did not affect Drp1 phosphorylation | sensitivity of βIPKC to proteolysis by PK (βIPKC): unaffected | δPKC entry into the mitochondria (proteinase K resistance) (δPKC [3]; following I/R): increased I/R-induced δPKC entry into the mitochondria | δPKC association with the mitochondria (δPKC [3]; following I/R, vs control peptide): two-fold increase | δPKC translocation to the mitochondria (δPKC [3]; normoxic condition): did not induce δPKC translocation to the mitochondria
